Data taken from US20120283182A1.
Blank lines part the entries; values can stand above or below the molecule they belong to. Ends that are not written are not given here.

Legend:
[1] = molecular target: 'd' subunit of F1Fo ATP synthase (dF1Fo) (rat) (UniProt P31399); test: cell-based or functional assay
[2] = molecular target: 'd' subunit of F1Fo ATP synthase (dF1Fo) (rat) (UniProt P31399); test: co-IP with anti-dF1Fo antisera from NCM mitochondria; Western blot densitometry
[3] = test system: adult rat cardiac ventricular F1Fo ATPase holo-enzyme
[4] = molecular target: delta protein kinase C (δPKC) (rat) (UniProt P09215); test: PKC overlay assay: inhibition of δPKC binding to blotted dF1Fo by the peptide; densitometry
[5] = molecular target: delta protein kinase C (δPKC) (rat) (UniProt P09215); test: PKC overlay assay: facilitation of δPKC binding to blotted dF1Fo by the peptide; densitometry

Chain of 'd' subunit of F1Fo ATP synthase (dF1Fo) (rat) (P31399 2-161 limits assumed): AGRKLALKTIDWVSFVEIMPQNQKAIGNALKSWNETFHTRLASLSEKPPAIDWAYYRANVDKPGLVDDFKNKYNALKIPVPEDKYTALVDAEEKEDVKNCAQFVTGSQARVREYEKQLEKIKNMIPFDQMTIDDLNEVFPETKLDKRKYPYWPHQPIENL

- further inhibition of F1Fo ATPase activity in NCM mitochondria (high glucose plus hypoxia) [1]: 28%
- further inhibition of F1Fo ATPase activity in NCMs (high glucose plus hypoxia) [1]: 29%
- inhibition of F1Fo ATPase activity in NCM mitochondria (high glucose) [1]: 56.1%
- inhibition of F1Fo ATPase activity in NCM mitochondria (hypoxia) [1]: 10 fold
- inhibition of F1Fo ATPase activity in NCMs (high glucose) [1]: 54%
- inhibition of F1Fo ATPase activity in rat heart mitochondria (ischemia/reperfusion) [1]: 2.2 fold
- inhibition of baseline F1Fo ATPase activity in NCMs (4 hr hypoxia) [1]: 75.1%
- fold increase of δPKC-dF1Fo co-IP over 3 nM 4-β PMA-induced levels [2]: 3.4 fold
Molecule: delta protein kinase C (δPKC) (from UniProt P09215 1-673) (enzyme)

Molecule: recombinant δPKC purified from sf9 cells
- oligomycin-sensitive F1Fo ATPase activity, in vitro [3]: recombinant δPKC profoundly inhibited F1Fo ATPase activity in the presence or absence of the PKC activators DG and PS

- IC50 [4]: 300 µM
B1: δPKC-dF1Fo inhibitor peptide … (peptide)
peptide: AGRKLALKTIDWVSF
modifications: not fully specified

- EC50 [5]: 300 µM
B2: δPKC-dF1Fo facilitator peptide … (peptide)
peptide: RVREYEKQLEKIKNMI
